Positions count from the first letter of the chain named. Numbers in names are those of the source.
B1: K2P13.1EM (human K2P13.1 (THIK-1) residues 1-350, N59Q/N65Q) (domain or fragment, UniProt Q9HB14 1-350, looked up)
chain: MAGRGFSWGPGHLNEDNARFLLLAALIVLYLLGGAAVFSALELAHERQAKQRWEERLAQFSRGHQLSRDELRGFLRHYEEATRAGIRVDNVRPRWDFTGAFYFVGTVVSTIGFGMTTPATVGGKIFLIFYGLVGCSSTILFFNLFLERLITIIAYIMKSCHQRQLRRRGALPQESLKDAGQCEVDSLAGWKPSVYYVMLILCTASILISCCASAMYTPIEGWSYFDSLYFCFVAFSTIGFGDLVSSQNAHYESQGLYRFANFVFILMGVCCIYSLFNVISILIKQSLNWILRKMDSGCCPQCQRGLLRSRRNVVMPGSVRNRCNISIETDGVAESDTDGRRLSGEMISMK
B2: K2P13.1EM S136P/Y273A (domain or fragment, human, UniProt Q9HB14 1-350, looked up)
chain: B1 chain with S136P, Y273A

Molecular target: the molecule itself
Assay: cryo-EM structure

Row | Protein | stoichiometry N | binding result
1 | B1 | 2 | 
2 | B2 |  | binds
